Reference: patent US20260201347A1, “ARTIFICIAL BIFUNCTIONAL ENZYME COMPRISING A MYELOPEROXIDASE ACTIVITY AND A GLUCOSE OXIDASE ACTIVITY AND APPLICATIONS THEREOF” (UNIVERSITÉ DE BORDEAUX, priority 2022, published 2026)

How the values were obtained:
Type in all cases: biochemical, Rhodopirellula baltica / Penicillium amagasakiens
Conditions in all cases: fixed NaCl 20 mM, pH7.5, pH 7.5
[1] = substrate: OC[C@H]1OC(O)[C@H](O)[C@@H](O)[C@@H]1O; assay: Coupled active sites, HOCl production from glucose, APF assay (Table 9), linker LEKRPEAEA
Protocol: (§1) Each experiment was performed in triplicate.
(§2) The activity of the two active sites was then assessed in conjunction to each other (FIG. 1).
(§3) Briefly, the aim was to measure the production of HOCl from glucose and NaCl as respective substrates of the enzymes, using the APF probe. Two types of kinetics were performed: • i) kinetics at various concentrations of glucose and a fixed concentration of NaCl, and • ii) kinetics at various concentration of NaCl and a fixed concentration of glucose.

[2] = substrate: OC[C@H]1OC(O)[C@H](O)[C@@H](O)[C@@H]1O; assay: Coupled active sites, HOCl production from glucose, APF assay (Table 9), linker LEGGEAEA
Protocol: as §1, §2, §3

[3] = substrate: OC[C@H]1OC(O)[C@H](O)[C@@H](O)[C@@H]1O; assay: Coupled active sites, HOCl production from glucose, APF assay (Table 9), linker GGGGGGGG
Protocol: as §1, §2, §3

B1: RbMPO-LEKRPEAEA-GOx chimera (Rhodopirellula baltica myeloperoxidase, SEQ ID NO: 10; linker SEQ ID NO: 8; Penicillium amagasakiens glucose oxidase, SEQ ID NO: … (protein)
chain: MLFWSKRTRKHPGRKRRRLRSEQLESRQLLAADFGGYRHNIYDAEDVNDDGRVSAIDALLVINAMTSETSRDENVFTDVNGDGRRSALDALRVINRIERGDVFPIDTSGDEDLNTLLPEMPSEVRSIDGSGNNPNDHLWGSVGQRLIRMAPAAYGDGISTLAGANRPSAREVSNVLSAMNTSQVLNDRGLSAFVYVWGQFIDHDLGLTESDEHGEAIDISVPEGDLWFDPMGSGEAVIPMTRTPIADGTGTSVGNPAQQFNQITAFIDGSMVYGSDAATAERLRTFAGGRLAISDNGLLPMDESGMVIAGDVRASENVGLTAIQTLFVREHNRLADEIFAADPEATDEEIYQRARLVVASLIQSITYNEFLPALLGQRAMDSYRGYDASVNPGIANEFSTAAFRLGHSTLRDEVGFMSNDGRESKDEMELKDAFFHASMLEETGIDSLLKFDASVQAQEIDLAVVDSLRNFLFGPPGAGGLDLVAMNIQRGRDHGLSDYNTTRQAYGLDRVETFDQITGDVELQQKLASLYGTVDNIDLWVGLMAEDHQHDASVGELTGLIIADQFQRTRDGDRFFYKNVLTDSEVESIERSTLADLIERNTSVDGLQENVFFMQVELRGRVILASSIPPNTMPSEVREEEIRGVSGMAIELIDASGKLVDSTVSDQHGNYRFRALSETGDYQVRLSESGEAMDVLVAHGAERIRGLDFIVLALEKRPEAEAYLPAQQIDVQSSLLSDPSKVAGKTYDYIIAGGGLTGLTVAAKLTENPKIKVLVIEKGFYESNDGAIIEDPNAYGQIFGTTVDQNYLTVPLINNRTNNIKAGKGLGGSTLINGDSWTRPDKVQIDSWEKVFGMEGWNWDNMFEYMKKAEAARTPTAAQLAAGHSFNATCHGTNGTVQSGARDNGQPWSPIMKALMNTVSALGVPVQQDFLCGHPRGVSMIMNNLDENQVRVDAARAWLLPNYQRSNLEILTGQMVGKVLFKQTASGPQAVGVNFGTNKAVNFDVFAKHEVLLAAGSAISPLILEYSGIGLKSVLDQANVTQLLDLPVGINMQDQTTTTVSSRASSAGAGQGQAVFFANFTETFGDYAPQARDLLNTKLDQWAEETVARGGFHNVTALKVQYENYRNWLLDEDVAFAELFMDTEGKINFDLWDLIPFTRGSVHILSSDPYLWQFANDPKFFLNEFDLLGQAAASKLARDLTSQGAMKEYFAGETLPGYNLVQNATLSQWSDYVLQNFRPNWHAVSSCSMMSRELGGVVDATAKVYGTQGLRVIDGSIPPTQVSSHVMTIFYGMALKVADAILDDYAKSA
notes: 6His (in the pET21a vector behind the XhoI site); made in house; host or cells: E. coli BL21Star (DE3)
Km ([1]; other: dimer/monomer): 2160 ± 1480 µM
kcat ([1]; other: dimer/monomer): 0.000642 s⁻¹
kcat/Km ([1]; other: dimer/monomer): 0.298 ± 0.235 M⁻¹ s⁻¹
Km ([1]; other: excluded): 22600 ± 6500 µM
kcat ([1]; other: excluded): 0.000365 s⁻¹
kcat/Km ([1]; other: excluded): 0.016 ± 0.005 M⁻¹ s⁻¹
Km ([1]; other: trimer): 1056 ± 496 µM
kcat ([1]; other: trimer): 0.000156 s⁻¹
kcat/Km ([1]; other: trimer): 0.148 ± 0.081 M⁻¹ s⁻¹

B2: RbMPO-LEGGEAEA-GOx chimera (Rhodopirellula baltica myeloperoxidase, SEQ ID NO: 10; linker SEQ ID NO: 4; Penicillium amagasakiens glucose oxidase, SEQ ID NO: … (protein)
chain: MLFWSKRTRKHPGRKRRRLRSEQLESRQLLAADFGGYRHNIYDAEDVNDDGRVSAIDALLVINAMTSETSRDENVFTDVNGDGRRSALDALRVINRIERGDVFPIDTSGDEDLNTLLPEMPSEVRSIDGSGNNPNDHLWGSVGQRLIRMAPAAYGDGISTLAGANRPSAREVSNVLSAMNTSQVLNDRGLSAFVYVWGQFIDHDLGLTESDEHGEAIDISVPEGDLWFDPMGSGEAVIPMTRTPIADGTGTSVGNPAQQFNQITAFIDGSMVYGSDAATAERLRTFAGGRLAISDNGLLPMDESGMVIAGDVRASENVGLTAIQTLFVREHNRLADEIFAADPEATDEEIYQRARLVVASLIQSITYNEFLPALLGQRAMDSYRGYDASVNPGIANEFSTAAFRLGHSTLRDEVGFMSNDGRESKDEMELKDAFFHASMLEETGIDSLLKFDASVQAQEIDLAVVDSLRNFLFGPPGAGGLDLVAMNIQRGRDHGLSDYNTTRQAYGLDRVETFDQITGDVELQQKLASLYGTVDNIDLWVGLMAEDHQHDASVGELTGLIIADQFQRTRDGDRFFYKNVLTDSEVESIERSTLADLIERNTSVDGLQENVFFMQVELRGRVILASSIPPNTMPSEVREEEIRGVSGMAIELIDASGKLVDSTVSDQHGNYRFRALSETGDYQVRLSESGEAMDVLVAHGAERIRGLDFIVLALEGGEAEAYLPAQQIDVQSSLLSDPSKVAGKTYDYIIAGGGLTGLTVAAKLTENPKIKVLVIEKGFYESNDGAIIEDPNAYGQIFGTTVDQNYLTVPLINNRTNNIKAGKGLGGSTLINGDSWTRPDKVQIDSWEKVFGMEGWNWDNMFEYMKKAEAARTPTAAQLAAGHSFNATCHGTNGTVQSGARDNGQPWSPIMKALMNTVSALGVPVQQDFLCGHPRGVSMIMNNLDENQVRVDAARAWLLPNYQRSNLEILTGQMVGKVLFKQTASGPQAVGVNFGTNKAVNFDVFAKHEVLLAAGSAISPLILEYSGIGLKSVLDQANVTQLLDLPVGINMQDQTTTTVSSRASSAGAGQGQAVFFANFTETFGDYAPQARDLLNTKLDQWAEETVARGGFHNVTALKVQYENYRNWLLDEDVAFAELFMDTEGKINFDLWDLIPFTRGSVHILSSDPYLWQFANDPKFFLNEFDLLGQAAASKLARDLTSQGAMKEYFAGETLPGYNLVQNATLSQWSDYVLQNFRPNWHAVSSCSMMSRELGGVVDATAKVYGTQGLRVIDGSIPPTQVSSHVMTIFYGMALKVADAILDDYAKSA
notes: as for B1
Km ([2]; other: dimer/monomer): 629 ± 295 µM
kcat ([2]; other: dimer/monomer): 0.000315 s⁻¹
kcat/Km ([2]; other: dimer/monomer): 0.5 ± 0.259 M⁻¹ s⁻¹
Km ([2]; other: excluded): 65600 ± 14200 µM
kcat ([2]; other: excluded): 0.00056 s⁻¹
kcat/Km ([2]; other: excluded): 0.00853 ± 0.00215 M⁻¹ s⁻¹
Km ([2]; other: monomer 1): 8820 ± 4870 µM
kcat ([2]; other: monomer 1): 0.00123 s⁻¹
kcat/Km ([2]; other: monomer 1): 0.139 ± 0.095 M⁻¹ s⁻¹
Km ([2]; other: monomer 2): 1380 ± 671 µM
kcat ([2]; other: monomer 2): 0.00377 s⁻¹
kcat/Km ([2]; other: monomer 2): 2.73 ± 1.5 M⁻¹ s⁻¹

B3: RbMPO-GGGGGGGG-GOx chimera (Rhodopirellula baltica myeloperoxidase, SEQ ID NO: 10; linker SEQ ID NO: 9; Penicillium amagasakiens glucose oxidase, SEQ ID NO: … (protein)
chain: MLFWSKRTRKHPGRKRRRLRSEQLESRQLLAADFGGYRHNIYDAEDVNDDGRVSAIDALLVINAMTSETSRDENVFTDVNGDGRRSALDALRVINRIERGDVFPIDTSGDEDLNTLLPEMPSEVRSIDGSGNNPNDHLWGSVGQRLIRMAPAAYGDGISTLAGANRPSAREVSNVLSAMNTSQVLNDRGLSAFVYVWGQFIDHDLGLTESDEHGEAIDISVPEGDLWFDPMGSGEAVIPMTRTPIADGTGTSVGNPAQQFNQITAFIDGSMVYGSDAATAERLRTFAGGRLAISDNGLLPMDESGMVIAGDVRASENVGLTAIQTLFVREHNRLADEIFAADPEATDEEIYQRARLVVASLIQSITYNEFLPALLGQRAMDSYRGYDASVNPGIANEFSTAAFRLGHSTLRDEVGFMSNDGRESKDEMELKDAFFHASMLEETGIDSLLKFDASVQAQEIDLAVVDSLRNFLFGPPGAGGLDLVAMNIQRGRDHGLSDYNTTRQAYGLDRVETFDQITGDVELQQKLASLYGTVDNIDLWVGLMAEDHQHDASVGELTGLIIADQFQRTRDGDRFFYKNVLTDSEVESIERSTLADLIERNTSVDGLQENVFFMQVELRGRVILASSIPPNTMPSEVREEEIRGVSGMAIELIDASGKLVDSTVSDQHGNYRFRALSETGDYQVRLSESGEAMDVLVAHGAERIRGLDFIVLAGGGGGGGGYLPAQQIDVQSSLLSDPSKVAGKTYDYIIAGGGLTGLTVAAKLTENPKIKVLVIEKGFYESNDGAIIEDPNAYGQIFGTTVDQNYLTVPLINNRTNNIKAGKGLGGSTLINGDSWTRPDKVQIDSWEKVFGMEGWNWDNMFEYMKKAEAARTPTAAQLAAGHSFNATCHGTNGTVQSGARDNGQPWSPIMKALMNTVSALGVPVQQDFLCGHPRGVSMIMNNLDENQVRVDAARAWLLPNYQRSNLEILTGQMVGKVLFKQTASGPQAVGVNFGTNKAVNFDVFAKHEVLLAAGSAISPLILEYSGIGLKSVLDQANVTQLLDLPVGINMQDQTTTTVSSRASSAGAGQGQAVFFANFTETFGDYAPQARDLLNTKLDQWAEETVARGGFHNVTALKVQYENYRNWLLDEDVAFAELFMDTEGKINFDLWDLIPFTRGSVHILSSDPYLWQFANDPKFFLNEFDLLGQAAASKLARDLTSQGAMKEYFAGETLPGYNLVQNATLSQWSDYVLQNFRPNWHAVSSCSMMSRELGGVVDATAKVYGTQGLRVIDGSIPPTQVSSHVMTIFYGMALKVADAILDDYAKSA
notes: as for B1
Km ([3]; other: dimer/monomer): 2060 ± 1290 µM
kcat ([3]; other: dimer/monomer): 0.00155 s⁻¹
kcat/Km ([3]; other: dimer/monomer): 0.754 ± 0.545 M⁻¹ s⁻¹
Km ([3]; other: excluded): 2760 ± 1060 µM
kcat ([3]; other: excluded): 0.000102 s⁻¹
kcat/Km ([3]; other: excluded): 0.037 ± 0.017 M⁻¹ s⁻¹
Km ([3]; other: monomer): 6196 ± 951 µM
kcat ([3]; other: monomer): 0.000512 s⁻¹
kcat/Km ([3]; other: monomer): 0.083 ± 0.015 M⁻¹ s⁻¹
Km ([3]; other: trimer): 3610 ± 2110 µM
kcat ([3]; other: trimer): 0.000589 s⁻¹
kcat/Km ([3]; other: trimer): 0.163 ± 0.129 M⁻¹ s⁻¹
